Laboratory results published in publication PMC9972567.

Target: Ep300 (UniProt B2RWS6)
Assay: anti-V5 IP, Ep300 immunoblot
Settings: reference: wild type; sites S656

binding against the reference: weaker
Substance: PIMT/TGS1 (human PIMT-V5) (from UniProt Q96RS0) S656A
